Bridges are numbered along the chain shown (N, C = ends). Where no end group is shown, it is not given here.

The labels stand for the following.
T1: VEGF-A truncated nascent chain (52 amino-terminal residues of VEGF-A plus His6 and two valines) translated in … (human, ε-labelled biotinylated lysine incorporated from Transcend tRNA (positions not stated))
T1 construct: in one setting the ribosomes were dissociated with RNAse ONE before elution; also called VEGF-A nascent chains; VEGF-A-translating ribosomes
T1 chain: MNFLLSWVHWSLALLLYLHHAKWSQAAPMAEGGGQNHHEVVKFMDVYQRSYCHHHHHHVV

T2: VEGF-A truncated nascent chain (amino-terminal 52 amino acid residues of human VEGF-A plus six histidine … (human))
T2 construct: Translated in vitro in wheat germ lysate without stop codon; also called short VEGF-A nascent chains; bait polypeptide
T2 chain: T1 chain

B1: FPATAAS (SEQ ID NO: 36), displayed on M13 phage (peptide)
chain: CFPATAASC
modifications: disulfide 1-9; not fully specified
notes: From the Ph.D.-C7C library; on phage; not shown: M13 pIII minor coat protein, peptide at its amino-terminus
B2: SPHLIPS (SEQ ID NO: 27), displayed on M13 phage (peptide)
chain: CSPHLIPSC
modifications: disulfide 1-9
notes: as for B1
B3: HALSSRT (SEQ ID NO: 32), displayed on M13 phage (peptide)
chain: CHALSSRTC
modifications: disulfide 1-9; not fully specified
notes: as for B1
B4: HPMFWPI (SEQ ID NO: 29), displayed on M13 phage (peptide)
chain: CHPMFWPIC
modifications: disulfide 1-9; not fully specified
notes: as for B1
B5: PLHPPQP (SEQ ID NO: 41), displayed on M13 phage (peptide)
chain: CPLHPPQPC
modifications: disulfide 1-9
notes: as for B1
B6: PSALAFY (SEQ ID NO: 47), displayed on M13 phage (peptide)
chain: CPSALAFYC
modifications: disulfide 1-9
notes: as for B1
B7: PPPFLPL (SEQ ID NO: 20), displayed on M13 phage (peptide)
chain: CPPPFLPLC
modifications: disulfide 1-9
notes: as for B1
B8: LALSAAR (SEQ ID NO: 25), displayed on M13 phage (peptide)
chain: CLALSAARC
modifications: disulfide 1-9; not fully specified
notes: as for B1
B9: HALPAPD (SEQ ID NO: 49), displayed on M13 phage (peptide)
chain: CHALPAPDC
modifications: disulfide 1-9; not fully specified
notes: as for B1
B10: NASRTTL (SEQ ID NO: 48), displayed on M13 phage (peptide)
chain: CNASRTTLC
modifications: disulfide 1-9; not fully specified
notes: as for B1
B11: SLNSDLF (SEQ ID NO: 26), displayed on M13 phage (peptide)
chain: CSLNSDLFC
modifications: disulfide 1-9
notes: as for B1
B12: EASSSRA (SEQ ID NO: 45), displayed on M13 phage (peptide)
chain: CEASSSRAC
modifications: disulfide 1-9; not fully specified
notes: as for B1
B13: SSTLHPS (SEQ ID NO: 31), displayed on M13 phage (peptide)
chain: CSSTLHPSC
modifications: disulfide 1-9; also: displayed on M13 phage, fused to pIII
notes: as for B1
B14: SYPLRPP (SEQ ID NO: 23), displayed on M13 phage (peptide)
chain: CSYPLRPPC
modifications: disulfide 1-9; also: displayed on M13 phage, fused to pIII
notes: as for B1
B15: EIRTPSV (SEQ ID NO: 21), displayed on M13 phage (peptide)
chain: CEIRTPSVC
modifications: disulfide 1-9; not fully specified
notes: as for B1
B16: EPASSRH (SEQ ID NO: 37), displayed on M13 phage (peptide)
chain: CEPASSRHC
modifications: disulfide 1-9; not fully specified
notes: as for B1
B17: AFPGMKA (SEQ ID NO: 18), displayed on M13 phage (peptide)
chain: CAFPGMKAC
modifications: disulfide 1-9; not fully specified
notes: as for B1
B18: LTLPNRT (SEQ ID NO: 17), displayed on M13 phage (peptide)
chain: CLTLPNRTC
modifications: disulfide 1-9; not fully specified
notes: as for B1
B19: LPRPLHS (SEQ ID NO: 42), displayed on M13 phage (peptide)
chain: CLPRPLHSC
modifications: disulfide 1-9; not fully specified
notes: as for B1
B20: TLSHTRT (SEQ ID NO: 35), displayed on M13 phage (peptide)
chain: CTLSHTRTC
modifications: disulfide 1-9; also: displayed on M13 phage, fused to pIII
notes: as for B1
B21: PANFGPS (SEQ ID NO: 16), displayed on M13 phage (peptide)
chain: CPANFGPSC
modifications: disulfide 1-9
notes: as for B1
B22: LPVSSSS (SEQ ID NO: 24), displayed on M13 phage (peptide)
chain: CLPVSSSSC
modifications: disulfide 1-9; not fully specified
notes: as for B1
B23: VSGSSPQ (SEQ ID NO: 43), displayed on M13 phage (peptide)
chain: CVSGSSPQC
modifications: disulfide 1-9; also: displayed on M13 phage, fused to pIII
notes: as for B1
B24: SRSALES (SEQ ID NO: 46), displayed on M13 phage (peptide)
chain: CSRSALESC
modifications: disulfide 1-9
notes: as for B1
B25: HPMFPLS (SEQ ID NO: 28), displayed on M13 phage (peptide)
chain: CHPMFPLSC
modifications: disulfide 1-9; not fully specified
notes: as for B1
B26: HAWTFNS (SEQ ID NO: 22), displayed on M13 phage (peptide)
chain: CHAWTFNSC
modifications: disulfide 1-9; not fully specified
notes: as for B1
B27: DYPWPLP (SEQ ID NO: 40), displayed on M13 phage (peptide)
chain: CDYPWPLPC
modifications: disulfide 1-9; not fully specified
notes: as for B1
B28: SPSTSSR (SEQ ID NO: 34), displayed on M13 phage (peptide)
chain: CSPSTSSRC
modifications: disulfide 1-9
notes: as for B1
B29: PHTRGFM (SEQ ID NO: 33), displayed on M13 phage (peptide)
chain: CPHTRGFMC
modifications: disulfide 1-9
notes: as for B1
B30: WASQAHP (SEQ ID NO: 30), displayed on M13 phage (peptide)
chain: CWASQAHPC
modifications: disulfide 1-9; also: displayed on M13 phage, fused to pIII
notes: as for B1
B31: PSLFPSM (SEQ ID NO: 44), displayed on M13 phage (peptide)
chain: CPSLFPSMC
modifications: disulfide 1-9
notes: as for B1
B32: LPPLQRL (SEQ ID NO: 19), displayed on M13 phage (peptide)
chain: CLPPLQRLC
modifications: disulfide 1-9; not fully specified
notes: as for B1
B33: PLHARLP (SEQ ID NO:1), displayed on M13 phage (peptide)
chain: CPLHARLPC
modifications: disulfide 1-9
notes: as for B1
B34: SGSSPWH (SEQ ID NO:7), displayed on M13 phage (peptide)
chain: CSGSSPWHC
modifications: disulfide 1-9
notes: as for B1
B35: LGALSHT (SEQ ID NO:14), displayed on M13 phage (peptide)
chain: CLGALSHTC
modifications: disulfide 1-9; not fully specified
notes: as for B1
B36: TASSVKL (SEQ ID NO:5), displayed on M13 phage (peptide)
chain: CTASSVKLC
modifications: disulfide 1-9; also: displayed on M13 phage, fused to pIII
notes: as for B1
B37: NLSSSWI (SEQ ID NO:9), displayed on M13 phage (peptide)
chain: CNLSSSWIC
modifications: disulfide 1-9
notes: as for B1
B38: PVAPSTH (SEQ ID NO:13), displayed on M13 phage (peptide)
chain: CPVAPSTHC
modifications: disulfide 1-9
notes: as for B1
B39: SPSLLPA (SEQ ID NO:11), displayed on M13 phage (peptide)
chain: CSPSLLPAC
modifications: disulfide 1-9
notes: as for B1
B40: PMTSPPS (SEQ ID NO:3), displayed on M13 phage (peptide)
chain: CPMTSPPSC
modifications: disulfide 1-9
notes: as for B1
B41: SSPLLGR (SEQ ID NO:12), displayed on M13 phage (peptide)
chain: CSSPLLGRC
modifications: disulfide 1-9
notes: as for B1
B42: SPRPSLS (SEQ ID NO:15), displayed on M13 phage (peptide)
chain: CSPRPSLSC
modifications: disulfide 1-9
notes: as for B1
B43: LTRPSPS (SEQ ID NO:10), displayed on M13 phage (peptide)
chain: CLTRPSPSC
modifications: disulfide 1-9; not fully specified
notes: as for B1
B44: SVSGSPS (SEQ ID NO:6), displayed on M13 phage (peptide)
chain: CSVSGSPSC
modifications: disulfide 1-9; also: displayed on M13 phage, fused to pIII
notes: as for B1
B45: NPISLHL (SEQ ID NO:4), displayed on M13 phage (peptide)
chain: CNPISLHLC
modifications: disulfide 1-9
notes: as for B1
B46: FLFRLF (SEQ ID NO:2), displayed on M13 phage (peptide)
chain: CFLFRLFC
modifications: disulfide 1-8; not fully specified
notes: From the Ph.D.-C7C library; on phage; A hexapeptide; not shown: M13 pIII minor coat protein, peptide at its amino-terminus
B47: HPSSTHQ (SEQ ID NO:8), displayed on M13 phage (peptide)
chain: CHPSSTHQC
modifications: disulfide 1-9; not fully specified
notes: as for B1

The first test concerns the target T1, VEGF-A truncated nascent chain (52 …). Put plainly: phage panning, biotinylated ribosome-bound nascent chain in streptavidin wells; selection only.
B1: the binding result is reported as “binds”.

Consider B2, for which the binding result is “binds”.

Regarding B3, the binding result was “binds”.

With B4, the binding result is reported as “binds”.

Take B5: the binding result is “binds”.

For B6, the binding result is listed as “binds”.

With B7, the binding result is “binds”.

B8: the binding result is reported as “binds”.

Regarding B9, the binding result is reported as “binds”.

In the case of B10, the binding result was “binds”.

As for B11, the binding result is listed as “binds”.

As to B12, the binding result is recorded as “binds”.

Take B13: the binding result is “binds”.

As to B14, the binding result was “binds”.

For B15, the binding result is given as “binds”.

Turning to B16, the binding result is on record as “binds”.

For the molecule B17, the binding result is “binds”.

Consider B18, for which the binding result is “binds”.

B19: the binding result is on record as “binds”.

Consider B20, for which the binding result was “binds”.

On to B21, for which the binding result is recorded as “binds”.

As to B22, the binding result is “binds”.

For the molecule B23, the binding result was “binds”.

As to B24, the binding result is listed as “binds”.

As for B25, the binding result was “binds”.

On to B26, for which the binding result is listed as “binds”.

With B27, the binding result was “binds”.

With B28, the binding result is “binds”.

In the case of B29, the binding result is given as “binds”.

As to B30, the binding result was “binds”.

Consider B31, for which the binding result is given as “binds”.

Regarding B32, the binding result is “binds”.

The target in the next test is T2, VEGF-A truncated nascent chain …. Put plainly: phage panning by co-sedimentation with ribosome-bound nascent chain, with subtraction on non-translating ribosomes; selection only.
As for B33, the binding result is “binds”.

For the next test the target is unchanged. Nature of the test: phage panning, released His-tagged nascent chain on Ni-NTA beads, DTT elution; selection only.
Take B34: the binding result is reported as “binds”.

On to B35, for which the binding result is listed as “binds”.

As for B36, the binding result is “binds”.

Consider B37, for which the binding result is given as “binds”.

Consider B38, for which the binding result is given as “binds”.

For B39, the binding result was “binds”.

Turning to B40, the binding result is given as “binds”.

As for B41, the binding result is listed as “binds”.

Regarding B42, the binding result is “binds”.

For B43, the binding result was “binds”.

For B44, the binding result is “binds”.

Consider B45, for which the binding result is “binds”.

As for B46, the binding result is given as “binds”.

As for B47, the binding result is given as “binds”.

(Values after patent publication EP2345737A1 (Harant, Hanna, dated 2011).)
